According to article PMC3542637:

Legend:
Experiment in all cases: purified protein
purified protein [1] = substrate: NC(=O)c1ccc[n+]([C@@H]2O[C@H](COP(=O)(O)OP(=O)(O)OC[C@H]3O[C@@H](n4cnc5c(N)ncnc54)[C@H](OP(=O)(O)O)[C@@H]3O)[C@@H](O)[C@H]2O)c1; type: biochemical, Burkholderia multivorans; settings: 200 μM L-fucose, pH 8.0, 50 mM BICINE, 30 °C, varied: cofactor
purified protein [2] = substrate: NC(=O)c1ccc[n+]([C@@H]2O[C@H](COP(=O)(O)OP(=O)(O)OC[C@H]3O[C@@H](n4cnc5c(N)ncnc54)[C@H](O)[C@@H]3O)[C@@H](O)[C@H]2O)c1; type: biochemical, Burkholderia multivorans; settings: 200 μM L-fucose, pH 8.0, 50 mM BICINE, 30 °C, varied: cofactor
purified protein [3] = substrate: O=C1O[C@H](CO)[C@@H](O)[C@@H]1O; type: biochemical, Burkholderia ambifaria; settings: pH 8.3, 2.5 mM BICINE, 0.2 M NaCl, 1% DMSO, 30 °C
purified protein [4] = substrate: O=C1O[C@@H](CO)[C@@H](O)[C@@H]1O; type: biochemical, Burkholderia ambifaria; settings: pH 8.3, 2.5 mM BICINE, 0.2 M NaCl, 1% DMSO, 30 °C
purified protein [5] = substrate: C[C@H]1C[C@@H](O)[C@H](O)C(=O)O1; type: biochemical, Burkholderia ambifaria; settings: pH 7.1, 2.5 mM MOPS, 0.2 M NaCl, 1% DMSO, 30 °C
purified protein [6] = substrate: C[C@H](O)[C@H]1OC(=O)[C@@H](O)[C@@H]1O; type: biochemical, Burkholderia ambifaria; settings: pH 8.3, 2.5 mM BICINE, 0.2 M NaCl, 1% DMSO, 30 °C
purified protein [7] = substrate: O=C1O[C@H]([C@@H](O)CO)[C@@H](O)[C@@H]1O; type: biochemical, Burkholderia ambifaria; settings: pH 8.3, 2.5 mM BICINE, 0.2 M NaCl, 1% DMSO, 30 °C
purified protein [8] = substrate: O=C1O[C@H](CO)[C@@H](O)[C@@H]1O; type: biochemical, Burkholderia multivorans; settings: pH 8.3, 2.5 mM BICINE, 0.2 M NaCl, 1% DMSO, 30 °C
purified protein [9] = substrate: O=C1O[C@@H](CO)[C@@H](O)[C@@H]1O; type: biochemical, Burkholderia multivorans; settings: pH 8.3, 2.5 mM BICINE, 0.2 M NaCl, 1% DMSO, 30 °C
purified protein [10] = substrate: C[C@H]1C[C@@H](O)[C@H](O)C(=O)O1; type: biochemical, Burkholderia multivorans; settings: pH 7.1, 2.5 mM MOPS, 0.2 M NaCl, 1% DMSO, 30 °C
purified protein [11] = substrate: C[C@H](O)[C@H]1OC(=O)[C@@H](O)[C@@H]1O; type: biochemical, Burkholderia multivorans; settings: pH 8.3, 2.5 mM BICINE, 0.2 M NaCl, 1% DMSO, 30 °C
purified protein [12] = substrate: O=C1O[C@H]([C@@H](O)CO)[C@@H](O)[C@@H]1O; type: biochemical, Burkholderia multivorans; settings: pH 8.3, 2.5 mM BICINE, 0.2 M NaCl, 1% DMSO, 30 °C

B1: BmulJ_04919 (Burkholderia multivorans ATCC 17616) (protein)
chain: MDLNLQDKVVIVTGGASGIGGAISMRLAEERAIPVVFARHAPDGAFLDALAQRQPRATYLPVELQDDAQCRDAVAQTIATFGRLDGLVNNAGVNDGIGLDAGRDAFVASLERNLIHYYAMAHYCVPHLKATRGAIVNISSKTAVTGQGNTSGYCASKGAQLALTREWAVALREHGVRVNAVIPAEVMTPLYRNWIATFEDPEAKLAEIAAKVPLGRRFTTPDEIADTAVFLLSPRASHTTGEWLFVDGGYTHLDRALV
Purified protein [1]
  Km: 4.0 ± 0.5 µM
  kcat: 11 ± 0.2 s⁻¹
  kcat/Km: 3e+06 M⁻¹ s⁻¹
Purified protein [2]
  Km: 28 ± 4 µM

B2: Bamb_1224 (Burkholderia ambifaria AMMD) (protein)
chain: MTFRIDAHQHFWQMASRDGYWPPQTLDAIYRDFGPQDLEPLLARSGVQRTVVVQSLPTQEDTRYLLDVASRTSFVAAVVGWVDLKSTDAPADIASLARDPKFRGIRPMLQDLADDDWIDDPVLEPAIDAMLAHDLAFDALVTPRHLPALLAFARRYPRLRIVIDHAAKPPIASGRSEAWHVAMSELAAHPNVHCKLSGLWTEAGPHPDLLRVEPYVRAVCDWFGASRLIWGSDWPVSRLAGHFGDYGAWLAWCEQCCDRFLGPDARARVFGGNACHFYRIDRPSGDQHAQ
Purified protein [3]
  Km: 800 ± 100 µM
  kcat: 19 ± 1 s⁻¹
Purified protein [4]
  Km: 1300 ± 300 µM
  kcat: 6.0 ± 0.5 s⁻¹
Purified protein [5]
  Km: 210 ± 20 µM
  kcat: 1530 ± 47 s⁻¹
Purified protein [6]
  Km: 900 ± 100 µM
  kcat: 89 ± 4 s⁻¹
Purified protein [7]
  Km: 1300 ± 100 µM
  kcat: 55 ± 2 s⁻¹

B3: BmulJ_04915 (Burkholderia multivorans ATCC 17616) (protein)
chain: MGALRIDSHQHFWRYRAADYPWIGAGMGVLARDYLPDALHPLMHAQALGASIAVQARAGRDETAFLLELACDEARIAAVVGWEDLRAPQLAERVAEWRGTKLRGFRHQLQDEADVRAFVDDADFARGVAWLQANDYVYDVLVFERQLPDVQAFCARHDAHWLVLDHAGKPALAEFDRDDTALARWRAALRELAALPHVVCKLSGLVTEADWRRGLRASDLRHIEQCLDAALDAFGPQRLMFGSDWPVCLLAASYDEVASLVERWAESRLSAAERSALWGGTAARCYALPEPADARL
Purified protein [8]
  Km: 700 ± 50 µM
  kcat: 59 ± 2 s⁻¹
Purified protein [9]
  Km: 1500 ± 300 µM
  kcat: 14 ± 1 s⁻¹
Purified protein [10]
  Km: 130 ± 30 µM
  kcat: 994 ± 64 s⁻¹
Purified protein [11]
  Km: 1400 ± 200 µM
  kcat: 140 ± 8 s⁻¹
Purified protein [12]
  Km: 1100 ± 200 µM
  kcat: 32 ± 2 s⁻¹
